Laboratory results as given in article PMC10442823.

Tests used:
[1] = target: His-tagged human FcγRIIIa (V158 allotype), extracellular domain (amino acids 17-208) (human) (UniProt P08637); assay: SPR
[2] = target: His-tagged human FcγRIIIa (V158 allotype), extracellular domain (amino acids 17-208) (human) (UniProt P08637); assay: SPR; Biacore T200; His-tagged FcγRIIIa captured (40 RU) by anti-His antibody on a CM5 chip; Rituxan flowed over, HEPES-EP running buffer; KD from steady state; three independent runs
[3] = target: His-tagged human FcγRIIIa (F158 allotype), extracellular domain (amino acids 17-208) (human) (UniProt P08637); assay: SPR

Row | Substance | Kd [1] [nM] | Kd [2] [nM] | Kd [3] [nM]
1 | mammalian cell produced rituximab (Rituxan) | 262 |  | 
2 | mammalian cell produced rituximab (Rituxan) (antibody) |  | 263 | 

Further substances by falling Kd [1], results first:

Row | Kd [1] [nM] | Kd [2] [nM] | Kd [3] [nM] | Substance
3 | 18 |  | 66.6 | rituximab (Rx), plant-produced, expressed alone
4 | 13 |  | 50.1 | rituximab (Rx), plant-produced, co-expressed with LdOST
5 | 12 |  | 54.4 | rituximab (Rx), plant-produced, co-expressed with LmSTT3D
